One block for each binder: values may come before it.
Key:
[1] = target: human BDNF (Sino Biological Inc., Catalog 50240-MNAS) (Homo sapiens, UniProt P23560); assay: SPR
[2] = target: human BDNF (KinExA; supplier not stated) (Homo sapiens, UniProt P23560); assay: kinetic exclusion assay
Sequence of human BDNF (KinExA; supplier not stated) (P23560 129-247): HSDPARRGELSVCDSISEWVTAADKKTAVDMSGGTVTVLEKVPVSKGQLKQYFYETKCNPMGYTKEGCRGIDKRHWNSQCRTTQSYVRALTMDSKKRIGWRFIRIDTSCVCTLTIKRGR

Sequence of human BDNF (Sino Biological Inc., Catalog 50240-MNAS) (P23560 129-247): as above

Kd [1]: 0.12 ± 0.01 nM
B1: B30, humanized and affinity-optimized anti-BDNF IgG1 (antibody, V domains shown)
VH: not shown
VL: SSELTQPPAVSVALGQTVRITCSGAGSGYGYGWYQQKPGQAPVTVIYSNDKRPSGIPDRFSGSSSGNTASLTITGAQAEDEADYYCGTYVSAYYGYAIFGGGTKLTVL

Kd [2]: 0.00106 nM
B2: B30 Fab (Fab, V domains shown)
VH: not shown
VL: B1 VL

Kd [1]: 34.4 ± 5.43 nM
B3: R3bH01, parental chimeric chicken-human IgG1 anti-BDNF antibody (antibody, V domains shown)
VH: AVTLDESGGGLQTPGGGLSLVCKASGFDFSSYDMHWVRQAPGKGLEWVAGIDDGGSDTYYGSAVKGRATISRDNGQSTVRLQLNNLRAEDTGTYYCAKSSYDISWNGHVENIDAWGHGTEVIVSS
VL: ALTQPTSVSTNLGGTVEITCSGAGSGYGYGWFQQKSPGSAPVTVIYSNDKRPSDIPSRFSGSKSGSTGTLTITGVQAEDEAVYFCGTYDSTDAGYAIFGAGTTLTVL

Source: paper PMC7188400 (mAbs, 2020)
